In PMC2222952, “Structural and Biochemical Bases for the Inhibition of Autophagy and Apoptosis by Viral BCL-2 of Murine γ-Herpesvirus 68” (PLoS Pathogens, 2008):
Where two headings read alike, the source gives them in different places. Ends that are not written are not given here.

B10: M11 (residues 1–137), purified alone (domain or fragment)
chain: MSHKKSGTYWATLITAFLKTVSKVEELDCVDSAVLVDVSKIITLTQEFRRHYDSVYRADYGPALKNWKRDLSKLFTSLFVDVINSGRIVGFFDVGRYVCEEVLCPGSWTEDHELLNDCMTHFFIENNLMNHFPLEDI
notes: source: E. coli BL21(DE3), purified (Ni-NTA, Hitrap Q)

How the values were obtained:
[1] = biological target: T1, M11, viral BCL-2 of murine γ-herpesvirus 68 (residues 1–137) (Murid herpesvirus 4, UniProt P89884); format: binding
T1 construct: Each of the DNA fragments coding for M11 (residues 1–137); His6 tag; This is inferred: pPROEX HTa encodes an N-terminal His tag with a TEV site, and purification was on Ni-NTA; (N); made in house; host or cells: E. coli BL21(DE3)
T1 sequence (P89884 whole entry, looked up): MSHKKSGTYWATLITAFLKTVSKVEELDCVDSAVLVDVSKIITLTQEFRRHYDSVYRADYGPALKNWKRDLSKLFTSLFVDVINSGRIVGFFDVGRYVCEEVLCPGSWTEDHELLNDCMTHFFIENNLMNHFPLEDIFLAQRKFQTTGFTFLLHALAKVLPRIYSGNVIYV
Description: (§1) “HT”, “CCD” and “ECD” denote hydrophobic tail, coiled-coil domain and evolutionarily conserved domain, respectively. […] The surface coloring scheme is as follows: olive for Val, Leu, Ile, Phe, Trp, Met, and Ala; yellow for Cys, Gly, Tyr, and Pro; gray for other amino acids. […] Only the BH3-binding groove region of M11 is shown for clarity. […] The arrows indicate the movements of the Cα atoms of Asp59 and Tyr60 in M11. (C) ITC analysis.
(§2) Figure 5 Analyses of the Interactions between M11 or BCL-2 Proteins and BAX/BAK (A) Cell-based binding assay. 293T cells were transfected with HA-tagged BAK or Flag-tagged BAX together with the indicated GST-tagged prosurvival BCL-2 proteins. Whole cell lysates were used for immunoprecipitation with anti-GST followed by immunoblotting with anti-HA or anti-Flag. […] (B) ITC analyses of the interactions of M11 with the BH3 peptides of BAX or BAK. The ITC analysis was carried out by titrating 0.1 mM of the indicated peptides into 5 μM of M11. The ITC run for the titration of the 26-mer BAK peptide is shown. […] NIH3T3 cells were transfected with HA-tagged M11 and whole cell lysates were used for immunoprecipitation with control rabbit serum or anti-BAK followed by immunoblotting with anti-HA.
(§3) A plasmid containing the DNA segment coding for human BCL-2 (residues 1–50 and 92–207) was also constructed. The resulting protein lacks the internal long loop (residues 51–91) and contains a replacement of residues 35–50 with residues 33–48 of BCL-XL, which was necessary for the solubility of the protein as reported earlier. Each construct was introduced into the E. coli BL21(DE3) strain. The proteins were expressed at 21 °C overnight and purified using a Ni-NTA column and a Hitrap Q anion exchange column.
(§4) All measurements were carried out at 25 °C on a MicroCalorimetry System (MicroCal). Protein samples were dialyzed against the solution containing 20 mM Tris-HCl (pH 7.4) and 100 mM NaCl. The samples were degassed for 20 min and centrifuged to remove any residuals prior to the measurements. Dilution enthalpies were measured in separate experiments (titrant into buffer) and subtracted from the enthalpies of the binding between the protein and the titrant. Data were analyzed using the Origin software (OriginLab Corp.).

[2] = test system: A1 ∆C20; set-up: method as in earlier work; conditions: Table S1; relative values, not absolute KD; peptides of Chen et al. are the same as or 1 to 2 residues shorter than those of this paper; read-out: binding affinity for A1 ∆C20 (relative value, competitive binding assay); cited from earlier work
[3] = test system: BCL-w ∆C29; conditions: Table S1; relative values, not absolute KD; peptides of Chen et al. are the same as or 1 to 2 residues shorter than those of this paper; read-out: binding affinity for BCL-w ∆C29 (relative value, competitive binding assay); cited from earlier work
[4] = test system: BCL-XL ∆C24; conditions: Table S1; relative values, not absolute KD; peptides of Chen et al. are the same as or 1 to 2 residues shorter than those of this paper; read-out: binding affinity for BCL-XL ∆C24 (relative value, competitive binding assay); cited from earlier work
[5] = test system: BCL-2 ∆C22; set-up: method as in earlier work; conditions: Table S1; relative values, not absolute KD; peptides of Chen et al. are the same as or 1 to 2 residues shorter than those of this paper; read-out: binding affinity for BCL-2 ∆C22 (relative value, competitive binding assay); cited from earlier work
[6] = biological target: T2, M11, viral BCL-2 of murine γ-herpesvirus 68 (residues 1–137) (Murid herpesvirus 4, UniProt P89884); format: binding; conditions: ITC, 25 °C, 20 mM Tris-HCl (pH 7.4), 100 mM NaCl; Table S2
T2 construct: Each of the DNA fragments coding for M11 (residues 1–137); His6 tag; This is inferred: pPROEX HTa encodes an N-terminal His tag with a TEV site, and purification was on Ni-NTA; (N); made in house; host or cells: E. coli BL21(DE3)
Description: as §1, §2, §3, §4

[7] = test system: MCL ∆N151 ∆C23; set-up: method as in earlier work; conditions: Table S1; relative values, not absolute KD; peptides of Chen et al. are the same as or 1 to 2 residues shorter than those of this paper; read-out: binding affinity for MCL ∆N151 ∆C23 (relative value, competitive binding assay); cited from earlier work
[8] = biological target: B10; assay: ITC; conditions: both partners purified
[9] = biological target: T3, Beclin1(101–267) (mouse, UniProt O88597 101-267); assay: ITC; conditions: both partners purified
T3 construct: also called Beclin1 fragment containing residues 101–267; large Beclin1 fragment; source: E. coli BL21(DE3), purified (Ni-NTA, Hitrap Q)

[10] = biological target: human BCL-2 (residues 1–50 and 92–207); assay: Isothermal titration calorimetry (ITC) of BCL-2 with Beclin1 fragment; format: binding
Procedure: Figure 3 M11 Interacts Much More Tightly with Beclin1 than BCL-2 and BCL-XL (A) ITC analysis. The measurement was carried out by titrating 0.1 mM of M11 or BCL-2 into 5 μM of the indicated Beclin1 fragment. The K D values were deduced from curve fittings of the integrated heat per mol of added ligand. (B) M11–Beclin1 interface is tighter than that of BCL-XL–Beclin1. The structures of M11–Beclin1 fragment (left) and BCL-XL–Beclin1 peptide (right) are compared side by side. In both the structures, the five consensus BH3 residues of the bound α-helices and the side chains of M11 or BCL-XL interacting with those residues are shown as sticks and labeled. Noted are the tighter interactions of the N-terminal region of Beclin1 with the α3 helix of M11 than the corresponding region in the BCL-XL–Beclin1 helix (indicated by dotted circles).
Each of the DNA fragments coding for M11 (residues 1–137), mouse BCL-XL (residues 1–44 and 85–196) or mouse Beclin1 (residues 101–267) was cloned into pPROEX HTa. […]
All measurements were carried out at 25 °C on a MicroCalorimetry System (MicroCal). […] Dilution enthalpies were measured in separate experiments (titrant into buffer) and subtracted from the enthalpies of the binding between the protein and the titrant. Data were analyzed using the Origin software (OriginLab Corp.).

[11] = biological target: T4, mouse BCL-XL (residues 1–44 and 85–196) (mouse, UniProt Q64373-1 1-196, lacking the internal long loop (residues 45–84)); assay: native gel or EMSA; conditions: both partners purified
T4 construct: also called BCL-XL lacking the internal long loop and the C-terminal tail region

[12] = 25 °C, 20 mM Tris-HCl (pH 7.4), 100 mM NaCl
[13] = ITC, 25 °C, 20 mM Tris-HCl (pH 7.4), 100 mM NaCl, Table S2

T4 sequence (Q64373 other isoform, or with tags, fused parts or gaps with the stated changes): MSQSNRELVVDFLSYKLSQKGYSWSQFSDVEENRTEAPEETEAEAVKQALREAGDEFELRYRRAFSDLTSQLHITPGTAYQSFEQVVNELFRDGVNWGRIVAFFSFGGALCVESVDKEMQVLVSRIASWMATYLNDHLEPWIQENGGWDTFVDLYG

Molecule: BAK (16-mer; residues 69-84): synthetic 16-mer peptide, residues 69–84 of BAK, spanning the BH3 domain (LGQVGRQLALIGDDIN)
- interaction with M11 in ITC, in words (KD could not be deduced) [1, 12]: flat titration curve

Molecule: BIK: synthetic 25-mer BH3 peptide, residues 45–69 of BIK (VEGRNQVALRLACIGDEMDLCLRSP)
- IC50 [2]: 58 nM
- IC50 [3]: 12 nM
- interaction with M11 in ITC, in words (KD could not be deduced) [1, 12]: did not interact or poorly interacted
- IC50 [4]: 43 nM

Molecule: RWAAAQVTALRLQALGDELHRRAMRR [Hrk]
- IC50 [2]: 46 nM
- IC50 [3]: 49 nM
- IC50 [4]: 3.7 nM
- IC50 [5]: 320 nM

Molecule: HRAEVQIARKLQCIADQFHRLHTQ [BMF]
- IC50 [2]: 1800 nM
- IC50 [3]: 9.8 nM
- -T∆S (M11 + BH3) [6]: -2.56 kcal/mol
- ∆G (M11 + BH3) [6]: -8.90 kcal/mol
- ∆H (M11 + BH3) [6]: -6.34 ± 0.07 kcal/mol
- IC50 [4]: 9.7 nM
- IC50 [7]: 1100 nM
- IC50 [5]: 3 nM

Molecule: Beclin1 fragment composed of residues 101–116: a shorter Beclin1 fragment composed of residues 101–116 (ASDGGTMENLSRRLKV)
- interaction with M11 in ITC, in words (KD could not be deduced) [1, 12]: no sign of interaction

Molecule: EEEWAREIGAQLRRMADDLNAQYERR [PUMA]
- IC50 [2]: 5.7 nM
- IC50 [7]: 5 nM

B1: Noxa BH3 peptide, 26-mer (residues 16–41 of Noxa) (peptide, UniProt Q9JM54 16-41, looked up)
peptide: RAELPPEFAAQLRKIGDKVYCTWSAP
notes: also called Noxa peptide; source: synthetic peptide, bought: Peptron (Korea)
- binding result [8]: binds

B2: PUMA BH3 peptide, 26-mer (residues 130–155 of PUMA) (peptide, UniProt Q99ML1 130-155, looked up)
peptide: EEEWAREIGAQLRRMADDLNAQYERR
notes: also called PUMA peptide; source: synthetic peptide, bought: Peptron (Korea)
- binding result [8]: binds

B3: human BCL-2 (residues 1–50 and 92–207, residues 35–50 replaced with residues 33–48 of BCL-XL) (domain or fragment, UniProt P10415-1 1-34, looked up)
chain: MAHAGRTGYDNREIVMKYIHYKLSQRGYEWDAGDNRTEAPEGTESEMETPVVHLTLRQAGDDFSRRYRRDFAEMSSQLHLTPFTARGRFATVVEELFRDGVNWGRIVAFFEFGGVMCVESVNREMSPLVDNIALWMTEYLNRHLHTWIQDNGGWDAFVELYGPSMR
notes: also called cellular BCL-2; source: E. coli BL21(DE3), purified (Ni-NTA, Hitrap Q)
- Kd [9]: 1700 nM

B4: BAK BH3 peptide, 26-mer (residues 65–90 of BAK) (peptide, UniProt O08734 65-90, looked up)
peptide: PNSILGQVGRQLALIGDDINRRYDTE
notes: also called BAK peptide; 26-mer BAK peptide; source: synthetic peptide, bought: Peptron (Korea)
- Kd [8]: 76 nM

B5: Beclin1(101–267): mouse Beclin1 fragment containing residues 101–267, expressed as a soluble form in E. coli (protein)
chain: ASDGGTMENLSRRLKVTGDLFDIMSGQTDVDHPLCEECTDTLLDQLDTQLNVTENECQNYKRCLEILEQMNEDDSEQLQRELKELALEEERLIQELEDVEKNRKVVAENLEKVQAEAERLDQEEAQYQREYSEFKRQQLELDDELKSVENQVRYAQIQLDKLKKTNV
- Kd ([1]; ITC, 25 °C, 20 mM Tris-HCl (pH 7.4), 100 mM NaCl, 0.1 mM M11 titrated into 5 μM Beclin1 fragment, KD from curve fitting, listed as Residues 101 - 267, read-out: KD (M11 – Beclin1 fragment)): 40.2 ± 9.05 nM
- Kd ([1]; ITC, 25 °C, 20 mM Tris-HCl (pH 7.4), 100 mM NaCl, 0.1 mM M11 titrated into 5 μM Beclin1 fragment, KD from curve fitting, read-out: KD (M11 – Beclin1 fragment)): 40 nM
- -T∆S (M11 + Beclin1) [1, 13]: 4.23 kcal/mol
- ∆G (M11 + Beclin1) [1, 13]: -10.10 kcal/mol
- ∆H (M11 + Beclin1) [1, 13]: -14.33 ± 0.23 kcal/mol
- Kd ([1]; ITC, read-out: dissociation constant (M11 – BH3-like domain of Beclin1)): 40 nM
- Kd ([10]; 25 °C, 20 mM Tris-HCl (pH 7.4), 100 mM NaCl, Table S2, read-out: KD (BCL-2 + Beclin1)): 1680 ± 452 nM
- Kd ([10]; read-out: binding affinity between cellular BCL-2 and Beclin1): 1700 nM

B6: BAX BH3 peptide, 26-mer (residues 52–77 of BAX) (peptide, UniProt Q07813-1 52-77, looked up)
peptide: QDASTKKLSECLRRIGDELDSNMELQ
notes: also called BAX peptide; source: synthetic peptide, bought: Peptron (Korea)
- Kd [8]: 690 nM

B7: BAD BH3 peptide, 27-mer (residues 137–163 of BAD) (peptide, UniProt Q61337 137-163, looked up)
peptide: APPNLWAAQRYGRELRRMSDEFEGSFK
notes: also called BAD peptide; source: synthetic peptide, bought: Peptron (Korea)
- binding result [11]: binds

B8: BID BH3 peptide, 25-mer (residues 80–104 of BID) (peptide, UniProt P70444 80-104, looked up)
peptide: EEIIHNIARHLAQIGDEMDHNIQPT
notes: also called BID peptide; source: synthetic peptide, bought: Peptron (Korea)
- binding result [8]: binds

B9: BIM BH3 peptide, 26-mer (residues 139–164 of BIM) (peptide, UniProt O54918-1 139-164, looked up)
peptide: DLRPEIRIAQELRRIGDEFNETYTRR
notes: also called BIM peptide; source: synthetic peptide, bought: Peptron (Korea)
- binding result [8]: binds
- binding result [11]: binds

Molecule: B10
- Kd [9]: 40 nM
